{
  "source": "paper PMC6923452",
  "about": "“SHBG141–161 Domain-Peptide Stimulates GPRC6A-Mediated Response in Leydig and β-Langerhans cell lines” (Scientific Reports, 2019)",
  "molecules": {"B1": {"name": "SHBG: Unliganded human SHBG was purchased by Affiland; the major blood carrier of T (protein, UniProt P04278 30-402, looked up)", "Sex hormone-binding globulin": "LRPVLPTQSAHDPPAVHLSNGPGQEPIAVMTFDLTKITKTSSSFEVRTWDPEGVIFYGDTNPKDDWFMLGLRDGRPEIQLHNHWAQLTVGAGPRLDDGRWHQVEVKMEGDSVLLEVDGEEVLRLRQVSGPLTSKRHPIMRIALGGLLFPASNLRLPLVPALDGCLRRDSWLDKQAEISASAPTSLRSCDVESNPGIFLPPGTQAEFNLRDIPQPHAEPWAFSLDLGLKQAAGSGHLLALGTPENPSWLSLHLQDQKVVLSSGSGPGLDLPLVLGLPLQLKLSMSRVVLSQGSKMKALALPPLGLAPLLNLWAKPQGRLFLGALPGEDSSTSFCLNGLWAQGQRLDVDQALNRSHEIWTHSCPQSPGNGTDASH"}},
  "key": {"[1]": {"test_system": "MA-10 cells", "assay": "Testosterone (T) release from Leydig MA-10 cells (GPRC6A-mediated)", "type": "cell-based, Mouse", "conditions": "for effect of SHBG pre-incubation on T release induced by SHBG141–161: then SHBG141–161 10^−11M", "description": "Human ucOCN was obtained from chemical decarboxylation of cxOCN, purchased from Bachem AG (Bachem, Bubendorf, Switzerland), as previously described. For displacement experiments, an aliquot ucOCN underwent chemical biotinylation as previously described[9],[41]. Unliganded human SHBG was purchased by […], Belgium). Human chorionic gonadotropin Gonasi was purchased by IBSA Farmaceutici Srl (Italy). Mouse Leydig-carcinoma cell line MA-10 (passage number 3 to 8; ATCC®; RRID: CRL-1573) were cultured on 0,1% gelatin/PBS-coated plasticware according to the manufacturer's instructions and maintained in DMEM:F12 Medium (ATCC®; RRID: 30-2006; pH 7,4) supplemented with additional 20 mM HEPES and horse serum to a final concentration of 15%. For immunofluorescence experiments, cells were let attach on 0,1% gelatin/PBS-coated round-coverslips (ø 13 mm, Menzel-Gläser-VWR International Srl, Milan, Italy) and then washed and fixed with 4% paraformaldehyde/PBS solution at room temperature for 15 min. After membrane permeabilization with 1% Triton X/PBS solution for 10 min at room temperature, cells were saturated with 5% bovine serum albumin/5% normal donkey serum/PBS solution for 1 hour and then incubated with rabbit-polyclonal anti-mouse GPRC6A IgG (dilution 1:200; Santa Cruz Biotechnology Inc. Heidelberg Germany; RRID: sc-67302,) and goat-polyclonal anti-human INSL3 IgG (dilution 1:200; Santa Cruz Biotechnology Inc; RRID: sc-48550) at 4 °C overnight. After extensive washing, primary immunoreaction was detected by appropriate secondary reagent, respectively: biotin conjugated-anti rabbit IgG (dilution 1:100; Vector Laboratories, Peterborough, UK; RRID: BA-1000) followed by Streptavidin […], (dilution 1:100; GeneTex/Prodotti Gianni, Milano, Italy; RRID: GTX85907) and FITC conjugated-anti goat IgG (dilution 1:100; Abcam, Milan, Italy; RRID: ab6737). Samples were then counterstained with 4',6-diamidino-2-phenylindole (DAPI), mounted with anti-fade buffer and then analyzed with Video-Confocal (VICO) fluorescence microscope (Nikon, Firenze, Italy). […] RRID: KGE010) according to manufacturer's instructions. Receptor blockade experiments were performed by pre-incubating cultured cells with anti-GPRC6A polyclonal antibodies (final concentration of […]; Santa Cruz Biotechnology Inc; RRID: sc-67302) for 30 minutes at 37 °C as previously described."}, "[2]": {"test_system": "β-TC6 cells", "assay": "Insulin release from Langerhans β-TC6 cells (GPRC6A-mediated)", "type": "cell-based, Mouse", "conditions": "for effect of SHBG pre-incubation on insulin release induced by SHBG141–161: then SHBG141–161 10^−11M"}, "[3]": {"test_system": "extracellular domain of GPRC6A", "conditions": "previous study; immunoprecipitation assays; cited from earlier work", "source_text": "To this regard, our group recently reported that sex hormone-binding protein (SHBG), the major blood carrier of T, is able to bind the extrace ... || If on one hand these represent encouraging results about the reliability of GPRC6A as therapeutic target, on the other hand, drug peptides and biologics drown great interest for their favorable safety profile, target specificity and pharmacokinetics compared with traditional small-molecule drugs. To this regard, the metabotropic receptor GPRC6A has been widely investigated as the mediator of non-genomic effects of androgens."}, "[4]": {"conditions": "SHBG 10^−14-10^−9M, any of the concentration tested"}, "[5]": {"conditions": "increasing SHBG, 1 hour at 37 °C"}},
  "note": "Entries after “also recorded” stand apart in the source; their conditions may differ.",
  "data": [
    {"molecule": "B1", "values": [
      {"measurement": "effect of SHBG pre-incubation on T release induced by SHBG141–161", "setting": "[1]; SHBG 10^−12M, 1 hour at 37 °C", "value": "complete blunt of the secretory stimulating activity"},
      {"measurement": "effect of SHBG pre-incubation on T release induced by SHBG141–161", "setting": "[1]; SHBG 10^−13M, 1 hour at 37 °C", "value": "significant reduction of T release; also recorded: significantly blunted"},
      {"measurement": "induction of T release by SHBG alone", "setting": "[1]; [4]", "value": "ineffective"},
      {"measurement": "effect of SHBG pre-incubation on T release induced by hCG", "setting": "[1]; SHBG, any of the concentration tested, 1 hour at 37 °C, then hCG 2,5 nM", "value": "negligible effect on T and insulin release"},
      {"measurement": "effect of SHBG pre-incubation on T release induced by SHBG141–161", "setting": "[1]; [5]", "value": "progressive reduction of T and insulin release"},
      {"measurement": "effect of SHBG pre-incubation on insulin release induced by SHBG141–161", "setting": "[2]; SHBG 10^−12M, 1 hour at 37 °C", "value": "complete blunt of the secretory stimulating activity"},
      {"measurement": "induction of insulin release by SHBG alone", "setting": "[2]; [4]", "value": "ineffective"},
      {"measurement": "effect of SHBG pre-incubation on insulin release induced by IBMX/glucose", "setting": "[2]; SHBG, any of the concentration tested, 1 hour at 37 °C, then 15 mM glucose + 100 μM IBMX", "value": "negligible effect on T and insulin release"},
      {"measurement": "effect of SHBG pre-incubation on insulin release induced by SHBG141–161", "setting": "[2]; [5]", "value": "progressive reduction of T and insulin release"},
      {"measurement": "binding to GPRC6A", "setting": "[3]", "value": "simple binding observed through immunoprecipitation assays; also recorded: able to bind the extracellular domain of GPRC6A"}
    ]}
  ]
}
